These results are taken from the nanobody polyreactivity screen of Harvey et al. (2022).

This series is described as follows: yeast display, Sf9 membrane polyspecificity reagent, FACS + sequencing; frameworks hold sequencing errors. The method in brief: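 In a synthetic yeast display library (Saccharomyces cerevisiae BJ5465), nanobody expression was induced with galactose for 36–48 hours. FACS gates were set low and high (top ~1%) using anti-HA fluorescence for expression and streptavidin fluorescence for binding of the Sf9 membrane reagent. Each polyreactivity label is drawn from the gate of origin.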
For the sequence “QVQLVESGGCLVQAGGSLRLSCAASGRTFRYYAMGWYRQAPGKERELVAAISSSGDRTYYADSVKGRFTISRDNAKNTVYLQMNSLKPEDTAVYYCAADRGARGDYWGQGTQVTVSS”, the “polyreactivity (PSR sort gate)” value is given as “high polyreactivity”. The same measure for “QVQLVESGGGLVQAGGSLRLSCAAYGFIFSYYAMGWFRQAPGKEREFVATITWRGGSTYYADSVKGRFTISRDNAKNTVYLQMNSLKPEDTAVYYCAARKRTPGYGYWGQGTQVTVSS”: “high polyreactivity”. The same measure for “QVQLVESGGGLVQAGGSLRLSCAASGRIYGVYVMGWSRQAPGKERELVAAISWGGGTYYADSVKGRFTISRDNSKNTVTLKMNSLKPEDTAVYYCNAESYYTMYYWGQGTQVTVSS”: “low polyreactivity”; for “QVQLVESGGGLVQAGGSLRLSCAASGRTFGLNAMGWYRQAPGKERELVAAISSSGGSTYYADSVKGRFTISRDNAKNTVYLQMNSLKPEDTAVYYCAKVLYRYGTAYYYWGQGTQVTVSS”: “high polyreactivity”; for “QVQLVESGGGLVQEGGSLRLICAASGRIFFYYAMGWYRQAPGKERELVAAISQSGGSTYYADSVKGRFTISRDNAKNTVYLQMNSLKPEDPAVYYCNAAEPYYDTSAVAGDYWGQGTQVTVSS”: “low polyreactivity”. With “QVQLVDSRGLLVQAGGSLRLSCAASGSTYSYYAMGWYRQAPGKERELVAAITRGGSTYYADSVKGRFTISRDNAKNTVYLQMNSLKPEDPAVYYCSATHVSRRWGMDYWGEGTQVTVSS”, the “polyreactivity (PSR sort gate)” value was “high polyreactivity”. The same measure for “QVQLHESGVGLVQAGGGLRLSCAATGSISSTGFMGWYRQAPGKEREPVAAIAPGTTTYYADSVKGRFTISRDNAKNTVYLQMNSLRPEDTAVYYCAVFTDNRVAFLYWGQGTQVTVSS”: “low polyreactivity”. Next, “QVQLVESGGGLVQAGGRLRLSCAASGLTFKRYAMGWYRQAPGKERELVASITGNGGSTYYADSVKGRFTISRDNAKNTVYLQINSLKPEDTAVYYCNARRYVRTSQQPLYFYWGQGTQVTVSS”: “high polyreactivity”.

As to “QVQLVESGGGLVQAGGSLRLSCAASGFIFSKYTMGWYRQAPGKETELVAAISSGGRTYYADSVKGRFTISRDNAKNTVYLQMNSLKPEDTAVYYCAVRGYIASQQAAGGGRNYYYWGQGTQVNVSS”, the “polyreactivity (PSR sort gate)” value is reported as “high polyreactivity”. Next, “QVHLVESGGGLVQAGGSLRISCAASGNIFPNNGMGWNRQAPGKERELVAAISFNGDDTYADSVKGRFTISRDNAKNTVYLKMNSLNPEDTAVYYCNAVPGADQFSAPVITTAEDYWGQGTQVTVSS”: “low polyreactivity”. The same measure for “QVQLVESGGGLVQAGGSLRISCAASGSTFVPNTMGWYRQAPGKERELVAAITYSGGSTYYADSVKGRFTISRDYAKNTVYLLMNSLKPEDTEVYYCAAEGTTWYYDMDYWGQGTQVTVSS”: “low polyreactivity”; for “QVQLVESGGGLVQAGSSLRLSCAASGSTFLYYAMGWYRQAPGKEREMVAAITSSGGRTYYADSVKGRFTNSRDNAKNTDYLQMNSLKPEDTAVYYCARGWPRREQSEYDYWGQGTQVTVSS”: “high polyreactivity”. The same measure for “QVQLVESGGGLVQAGGSLRFSCAASGSTFVYYAMGWYRQAPGKERELVAAITFGGGSTYYADSVKGRFTISRDNAKNTVYLQMNSLKPEDTAVYYCAVYWDDGSAYPPLIVGYDYWGQGTQVTVSS”: “low polyreactivity”; for “QVQLVESGGGLVQAGGSLRISCAASGSIFLYNDMGWYRQAPGKERELVAAITSTGNTNYADSVKGRFTISRDNAKNTVYLQMNSLNRKRPRSITALNVSCTSVVVGYDYWGQGTQVTVSS”: “low polyreactivity”; for “QVQLVESGGGLVQAGGSLRLSCAASGFTFYTNAMGWYRQAPGKERELVAAISKRGASTYYADSVKGRFTISRDNAKNTVYLQMNSLKPEDTAVYYCAASSRTHGSYDYWGQGTQVTVSS”: “high polyreactivity”.

As to “QVQLVESGGGLVQAGGSLRLICAASGGTFYAYAMGWYRQAPGKERELVAAITRSGGRTYYADSVKGRFTISRDNAKNTVSLQMNSLKPEDTAVYYCAADPHHYSGLDYWGQGTQVTVSS”, the “polyreactivity (PSR sort gate)” value is “low polyreactivity”. Next, “QLQLVESGGGLVQAGGSLRLSCAASGYTFKTNDMGWYRQAPGKEREFVAAIDSGGNTYYADSVKGRFTISRDNAKNTVYLQMNSLKPEDTAVYYCAAYRDYQNDYWGQGTQVTVSS”: “low polyreactivity”. Next, “QVQLVESGGGLVQAGGSLRLSCAASGSIFHNYDMGLYRQAPGKEREMVADISRGGDTNYADSVKGRFTISRDNAKNTVYLQLNSLKPEDTAVYYCNATYWILDSPWWRETFAYWGQGTQVTVSS”: “low polyreactivity”. Take “QVQLVESGGGLVQAGGSLRLSCAASGNIFSDNAMGWYRQAPGKESELVAAITSGGSTNYADSVKGRFTISRDNAKNTVYLQMNSLKPEDTAVYYCAADISYRHFLFDYWGQGTQVTVSS”: the “polyreactivity (PSR sort gate)” value is reported as “low polyreactivity”. In the case of “QVQLVESGGGLVQAGCSLRLSCAASGITFVGYAMGWYRQAPGKERELVAAISSSGGSTYYADSVKGRFTISRDNAKNTVYLQMNSLKPEDTAVYYCAKRRWWQKSLYDYWGQGTQVTVSS”, the “polyreactivity (PSR sort gate)” value is given as “high polyreactivity”. The same measure for “QVQVVESGGGLVQAGGSLRLSCAASGSTFYSNAMGWYSQAAGQERELVAAITWSDGSTYYADSVMGRFTISRDNAKHTVYVQMNSHKPEDTALYYCSATQAEVVWTPVYVEYDYWGQGTQVTVSS”: “high polyreactivity”; for “QDQLVESGGGLVQAGGSLRLSCAASGITFFYYAMGWYRQAPGKERELVAAINWSGRTYYADSVKGRFTISRDNAKNTVYLQINSLKPEDTAVYYCAAVTYGPGVSVMDYWGQGTQVTVSS”: “low polyreactivity”. The same measure for “QVQLVESGGGLVQAGGSLRLSCAASGYSFKSYVMGWYSQAPGKERELVAAITWSGGSTYYADSVKGRFTLSRDNAKNTVFLQMHSLKPEDTAVYYCAAYPRRYRTTYDYWGQGTQVTVSS”: “high polyreactivity”. In the case of “QVQLVESGGGLVQAGGSLRLSCAASGSIFSFYAMGWYRQAPGKERELVAAITSDGSTDYADSVKGRFTISRDNAKNTVYLQMNSLKPEDTAVYYCAADYIVRVVSRYRYGYEYWGQGTQVTVSL”, the “polyreactivity (PSR sort gate)” value is “low polyreactivity”. On to “QVQLVESGGGLVQAGGSLRLSCAASGFIFSSYAMGWYRQAPGKERELVAAISRGGSTYYADSVKGRFTISRDNAKNTVYLQMNSLKPEDTAVYYCNARRYRHDGYWGQGTQVTVSS”, for which the “polyreactivity (PSR sort gate)” value was “high polyreactivity”. Next, “QFHLVESGRDFVQAAGSLLLSCAASASIFRYYTMGWYRQAPGKETELVATITDRGTSTYDADSVKGRFTLSRESV”: “high polyreactivity”; “QVQLVESGGGLVQAGGSLRLSCAASGFIFPLYAMGWYRQAPGKERELVAAITWRGDTTSYADSVKGRFTISRDNAKNTVYLQKNSLKPEDTAVDYCAAVRYPSGYDYWGQGTQVTVSS”: “high polyreactivity”.

For the sequence “EVQLVESGGGLVQAGGSLRLSCAASGRIFYTNTMGWYRPAPGKERELVATGSTYYADSVKGRFTISRDNAKNTVYLQMDSLKPEDTAVYYCAKRGDFLTKRYESGSAASDYLGQGTQVTVSS”, the “polyreactivity (PSR sort gate)” value is “low polyreactivity”. The same measure for “QVQLVESGGGLVQAGGSLRLSCAASGYTFSGYAMGWYRQAPGKERELVAAISKRGGSTYYADSVKGRFTISRDNAKNTVYLQMNSLKPEDTAVYYCAKRSGYRSHYGYWGQGTQVTVSS”: “high polyreactivity”. Take “QVQLVESGGGLVQAGGSLRLSCAASGFTFFHYAMGWYRQATGKEREFVAAINTRGSRTYYADSVKGRFTISRDNAKNTVYLQMNSLKPEDTAVYYCAADSVQVYAWQYYYWGQGTQVTVSS”: the “polyreactivity (PSR sort gate)” value is on record as “high polyreactivity”.
